We go through 32 sequences from the supplement of paper PMC9170038.

This data set relates to MS2 coat protein. In words: apparent KD of MS2 coat protein; designed switch direction (-1 OFF switch, 1 ON switch): -1; higher = weaker reporter binding. The procedure, abridged:
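Transcription of designed RNA switches on Illumina chips was done by stalled E. coli RNA polymerase. SNAP-549-labelled MS2 coat protein was then titrated in doubling steps from 0.7 or 1.5 nM to 3 µM, with steps of 0.8–1.5 h at the lowest and 10–20 min at the highest concentration. The per-design median over clusters of curve-fitted normalised fluorescence is reported as apparent KD.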

The mark [1] stands for this setting: Eterna round: R95, input ligand: microRNA oligo, concentration not stated.
The mark [2] stands for this setting: Eterna round: R95, input ligand: FMN 200 uM.
[3] abbreviates: Eterna round: R95, input ligand: none.
Setting [4] is: input ligand: microRNA oligo, concentration not stated.

For “UUUGUUGUUGUGAGGAUAUCGUUGAUUUUUUGAAACGAGAAGGCACAUGAGGAUCACCCAUGUUUGUUGUUGGU [JR_BMOE4_Sub058] (puzzle: Brourd's mod of Exclusion 4)”, the “apparent KD of MS2 coat protein” value under setting [1] came out at 58.8 nM.

On to “CAAAAGGUAGGAUAUACGAAAAAAAAGGGUAGAAAAAAAACACAUGAGGAUCACCCAUGUAGAAGGACCAAAAG [salish99_ex2_r3_053] (puzzle: Exclusion 2)”, for which the “apparent KD of MS2 coat protein” value by setting is: under setting [2], 71.2 nM; under setting [1], 24.9 nM; under setting [3], 22.2 nM.

As for “ACGGCGGCUCUAGGAUAUGACGACAUGAGGAUCACCCAUGUAGCCUUAGCCUUCACGAAAAUCGAUCAGAAGGAGAGCUCCAGG [Eternabot solution 19] (Eterna round: R96, puzzle: Exclusion NG 2)”, the “apparent KD of MS2 coat protein” value (input ligand: FMN 200 uM) came out at 13.5 nM, the “apparent KD of MS2 coat protein” value under setting [4] was found to be 10.9 nM and the “apparent KD of MS2 coat protein” value (input ligand: none) came to 17.6 nM.

With “GGUGCGUAUGUGAGGAUAUGCUGGUCCUUGGAUCAGCAGAAGGCACAUGAGGAUCACCCAUGUGGUGUCGUUCC [salish99_Bmod_Ex4_020] (puzzle: Brourd's mod of Exclusion 4)”, the “apparent KD of MS2 coat protein” value under setting [1] is 363 nM.

Consider “GGUUGGCGAGGAUAUACAUGAGGAUCACCCAUGUGAGAGAAAAAAGUGAGGAAGCAAAGUAGAAGGCGCUGACG [salish99_ex3_r3_034] (puzzle: Exclusion 3)”, for which the “apparent KD of MS2 coat protein” value is, setting by setting: under setting [2], 117 nM; under setting [1], 42.8 nM; under setting [3], 77.8 nM.

Turning to “GGCAGUACAGAGGAUAUCUGGACCUACAGGAAUAGAGAAGGUUGUACAUGAGGAUCACCCAUGUCGACACUCAG [Eternabot (Original) Solution 11] (Eterna round: R97, puzzle: Exclusion 6)”, the “apparent KD of MS2 coat protein” value runs as follows: (input ligand: FMN 200 uM) 13.2 nM; (input ligand: none) 13.7 nM.

In the case of “UUAAUGACUGUGAGGAUAUCGGAUAGAUAGAUAUUUGAGAAGGUACAUGAGGAUCACCCAUGUGUGAUUAGAGA [Brourd's EX4 #66] (Eterna round: R97, puzzle: Brourd's mod of Exclusion 4)”, the “apparent KD of MS2 coat protein” value (input ligand: FMN 200 uM) was 246 nM and the “apparent KD of MS2 coat protein” value (input ligand: none) was 253 nM.

In the case of “UUGAAGUCAUCAGGAUAUAGUAUUAAAGACAUUUAUUUUUUCAUACAUGAGGAUCACCCAUGUCGCUAGAAGGGAUUAUAGAUU [JR_ExcNG2_Sub079] (Eterna round: R96, puzzle: Exclusion NG 2)”, the “apparent KD of MS2 coat protein” value under setting [4] was determined as 38.4 nM.

Consider “CCUACGUUGUAGGAUAUAGUGAUUUAUUAAUAUUUAGAAGGACAUACAUGAGGAUCACCCAUGUGAGUUGGGUG [Eternabot (L2) Solution 27] (Eterna round: R97, puzzle: Exclusion 6)”, for which the “apparent KD of MS2 coat protein” value runs as follows: (input ligand: FMN 200 uM) 153 nM; (input ligand: none) 674 nM.

As for “UGCGGUAGAGGAUAUACGUAGAAAUAGAUUCAUGUAAAACUACAUGAGGAUCACCCAUGUAGAAGGCUAUCGCU [JL-ex2-4.27 Eli mod] (Eterna round: R97, puzzle: Exclusion 2)”, the “apparent KD of MS2 coat protein” value was determined as 265 nM (input ligand: FMN 200 uM) and 25.8 nM (input ligand: none).

“ACAUGAGGAUCACCCAUGUCCGUCUGGUCUGUCUCGGCUGUCGAGGAUAUAGCCCGGUAUCCGCGCUAGAAGGCGGGAGUCGGC [Aenatbe mod 97] (Eterna round: R96, puzzle: Exclusion NG 3)”: the “apparent KD of MS2 coat protein” value (input ligand: FMN 200 uM) came out at 23.1 nM, the “apparent KD of MS2 coat protein” value under setting [4] turned out to be 24.5 nM and the “apparent KD of MS2 coat protein” value (input ligand: none) was 29.6 nM.

In the case of “UAGUGGCAAGGAUAUACAGUGGAGAGGAUUGCAAGAGGUGGACAUGAGGAUCACCCAUGUAGAAGGUGCAGAGA [JR_Exclu2_Sub023] (puzzle: Exclusion 2)”, the “apparent KD of MS2 coat protein” value under setting [1] was determined as 203 nM.

Turning to “GAUCAACAUGAGGAUCACCCAUGUGAGGAUAUGAUACUAUGUACUUCGGUACAUAGUAUCAGAAGGCACAUUGA [Ex1-3: 42] (puzzle: Exclusion 1)”, the “apparent KD of MS2 coat protein” value under setting [1] was 90.9 nM.

In the case of “GCCAAUGACUGAGGAUAUGCUUAUAGACAUGAGGAUCACCCAUGUAAAUGGGACAUGUCAAACCAGCAGAAGGCAGGACCUGGC [Arused] (Eterna round: R96, puzzle: Exclusion NG 2)”, the “apparent KD of MS2 coat protein” value was determined as 69 nM (input ligand: FMN 200 uM), 585 nM under setting [4] and 514 nM (input ligand: none).

Consider “GCACUGGCAGGAUAUACAUGAGGAUCACCCAUGUGAUCCCUUAGGUACAAAAGUACUAGUAGAAGGGCCUGUGC [Omei Ex3 Model Bachelor's Dilema v48] (Eterna round: R97, puzzle: Exclusion 3)”, for which the “apparent KD of MS2 coat protein” value stood at 294 nM (input ligand: FMN 200 uM) and 968 nM (input ligand: none).

Consider “GAGGCUAAAGGAUAUACAUGAGGAUCACCCAUGUGGAGGAAGGUUAGAUGAGGAGAAGGUAGAAGGUUAGGCGA [JR_Exclu3_Sub093] (puzzle: Exclusion 3)”, for which the “apparent KD of MS2 coat protein” value is, setting by setting: under setting [2], 29.7 nM; under setting [1], 23.6 nM; under setting [3], 28.6 nM.

“AGCUGUGGCCGAGGAUAUGACAUGAGGAUCACCCAUGUACAUAAUUAGGCCUGGUAACAGGCUCGUCAGAAGGCGGUCUCAGCA [Eli eng2 - 007] (Eterna round: R96, puzzle: Exclusion NG 2)”: the “apparent KD of MS2 coat protein” value reads like this: (input ligand: FMN 200 uM) 12.3 nM; under setting [4], 8.31 nM; (input ligand: none) 12.6 nM.

For the sequence “AGUGUGUGGCAGGAUAUGCGAUUUAUAGGUGAAGCAGAAGGGUCUACAUGAGGAUCACCCAUGUGUGCGGUUGA [Ex6 #21] (Eterna round: R97, puzzle: Exclusion 6)”, the “apparent KD of MS2 coat protein” value was determined as 318 nM (input ligand: FMN 200 uM) and 160 nM (input ligand: none).

Consider “UUUUUUGUUGUGAGGAUAUCGUAUUUUUUUUGUUACGAGAAGGCACAUGAGGAUCACCCAUGUUUCUUGAUGUU [JR_BMOE4_Sub066] (puzzle: Brourd's mod of Exclusion 4)”, for which the “apparent KD of MS2 coat protein” value under setting [1] amounted to 16.8 nM.

In the case of “GGGCCUUUGGUCAGGAUAUCUUAUUCCAGACUAUAGGAGAAGGGACUUGAGGAUCACCCAAGUAAAAUGAAAAC [Dizadi] (Eterna round: R97, puzzle: Brourd's mod of Exclusion 4)”, the “apparent KD of MS2 coat protein” value reads like this: (input ligand: FMN 200 uM) 23.3 nM; (input ligand: none) 24 nM.

On to “GUAAACGAAGAGGAUAUUUGAUAUCAAAGCUUCAAAGAAGGCUUCACAUGAGGAUCACCCAUGUGAUCUUCAAA [Mat - Exclusion 6 - JL Mod - D18] (Eterna round: R97, puzzle: Exclusion 6)”, for which the “apparent KD of MS2 coat protein” value by setting is: (input ligand: FMN 200 uM) 191 nM; (input ligand: none) 23.3 nM.

On to “CUCCUGUAAGGAUAUCUGACAAGUGACGAAAGUCACAGUUCAGAGAAGGUACAUGAGGAUCACCCAUGUAGAAC [Exclusion 4 - Mod Brourd Ex 4-3: 41 v.2] (puzzle: Exclusion 4)”, for which the “apparent KD of MS2 coat protein” value under setting [1] was 31 nM.

As for “CUUAGGGCGGAGGAUAUGCCGUGGGCGAAUACAGUAGAAGGCCGCACUUGAGGAUCACCCAAGUAUGGUCAAAC [Inusisbeor] (Eterna round: R97, puzzle: Exclusion 6)”, the “apparent KD of MS2 coat protein” value by setting is: (input ligand: FMN 200 uM) 15.4 nM; (input ligand: none) 13.1 nM.

In the case of “GCUGCGCGAGGAUAUGCGGUUUGUGCUGUGGCCCGUGGCGUACAUGAGGAUCACCCAUGUAGAAGGCGUGUGGG [Apr-15 SS2-54] (puzzle: Exclusion 2)”, under setting [1], the “apparent KD of MS2 coat protein” value was determined as 22.5 nM.

Regarding “UGUACUAACACGAUAGUGUUAGUACUAUAAGCUUGUGUUACAUGAGGAUCACCCAUGUCCUCAUAAGCUCGUCUUGA [Mat - Sensor v3 - Turn-off var 2 - D93] (Eterna round: R96, puzzle: Sensor v3, turn-off variant 2)”, the “apparent KD of MS2 coat protein” value by setting is: (input ligand: FMN 200 uM) 36.8 nM; under setting [4], 472 nM; (input ligand: none) 38.9 nM.

In the case of “CAGAAACAUGAGGAUCACCCAUGUGAGGAUAUGAAAAAGAAAAGAAAAGAAAGAAGAAUCAGAAGGCACAAAGU [salish99-ex1_r3_086] (puzzle: Exclusion 1)”, the “apparent KD of MS2 coat protein” value reads like this: under setting [2], 36.8 nM; under setting [1], 32.4 nM; under setting [3], 35.7 nM.

“AAUACAAGCUAUUGAUCCCACAUGAGGAUCACCCAUGUAUAUGGCGGUGACACCUCCAUGACGAUAGCUCGUCUUAU [Sensor-V1 #58] (Eterna round: R97, puzzle: Sensor, turn-off variant 1)”: the “apparent KD of MS2 coat protein” value amounted to 567 nM (input ligand: FMN 200 uM) and 1360 nM (input ligand: none).

With “AGGUAACAUGAGGAUCACCCAUGUCAGGAUAUCAGGAAGAUUAGAAUAGAGUAGAGGAUGAGAAGGGACUAUAU [Excluse me! 18- Jieux - Exclusion 1] (Eterna round: R96, puzzle: Exclusion 1)”, the “apparent KD of MS2 coat protein” value under setting [4] is 24.7 nM.

Turning to “GUCAGCUCGUGAGGAUAUACAUCACUGCUUCGGCAGUGUAUUAAGAUCACAUGAGGAUCACCCAUGUAGAAGGUACGAGCUGAU [ENG2/2-C2] (Eterna round: R96, puzzle: Exclusion NG 2)”, the “apparent KD of MS2 coat protein” value was 214 nM (input ligand: FMN 200 uM), 17.6 nM under setting [4] and 26.9 nM (input ligand: none).

With “UAAGCUCUGUCAGGAUAUCCCUGUAAACGCAACGGAGAAGGGACAUGAGGAUCACCCAUGUGCGGGCCCAACGCGCUUGGGUCC [Gelaisve] (Eterna round: R96, puzzle: Exclusion NG 1)”, the “apparent KD of MS2 coat protein” value stood at 56.6 nM (input ligand: FMN 200 uM), 20.6 nM under setting [4] and 26.3 nM (input ligand: none).

“UAUAUAUAGUAAGGAUAUGUAUUAAUUUUGUAAACAGAAGGUACUGACAUGAGGAUCACCCAUGUUUUAGUGUGGGCAUGUAGA [JMF's solution 87] (Eterna round: R96, puzzle: Exclusion NG 1)”: the “apparent KD of MS2 coat protein” value under setting [4] was 111 nM.

Regarding “GUAGAGUCAGGAUAUACGAGAUCGAAAGAUCGGCGGUCCUUACAUGAGGAUCACCCAUGUAGAAGGGACUCUAC [Omei mod 6 to Eli's favorate candidate (ch.parushev)] (Eterna round: R97, puzzle: Exclusion 2)”, the “apparent KD of MS2 coat protein” value was 258 nM (input ligand: FMN 200 uM) and 71.3 nM (input ligand: none).
